The record followed here is patent publication US20180016327A1 (Chugai, published 2018).

Numbering of substitutions follows the chain as printed.

First the molecules themselves.
B1: CFP0015 15L 31S (antibody, V domains shown)
VH: QVQLLESGGGLVQPGGSLRLSCAASGFTFSSYAMSWVRQAPGKGLEWVSAISGSGGSTYYADSVKGRFTISRDNSKNTLYLQMNSLRAEDTAVYYCARGDQIWYDQWYYFDMWGQGTLVTVSS
VL: DIQMTQSPSSLSASVGDRVTITCRASQSIESDLAWYQQKPGKAPKLLIYEASNLQSGVPSRFSGSGSGTDFTLTISSLQPEDFATYYCQQYDSSPLTFGQGTKVEIK
B2: CFP0015 15L 31Y (antibody, V domains shown)
VH: B1 VH
VL: B1 VL with S31Y
B3: CFP0015 15L 91D (antibody, V domains shown)
VH: B1 VH
VL: B1 VL with S31D, Y91D
B4: CFP0015 15L 53S (antibody, V domains shown)
VH: B1 VH
VL: B1 VL with S31D, N53S
B5: CFP0015 15L 53H (antibody, V domains shown)
VH: B1 VH
VL: B1 VL with S31D, N53H
B6: CFP0015 15L 34N (antibody, V domains shown)
VH: B1 VH
VL: B1 VL with S31D, A34N
B7: CFP0015 15L 32T (antibody, V domains shown)
VH: B1 VH
VL: B1 VL with S31D, D32T
B8: CFP0015 15L 50S (antibody, V domains shown)
VH: B1 VH
VL: B1 VL with S31D, E50S
B9: CFP0015 15L 50Y (antibody, V domains shown)
VH: B1 VH
VL: B1 VL with S31D, E50Y
B10: CFP0015 15L 32Q (antibody, V domains shown)
VH: B1 VH
VL: B1 VL with S31D, D32Q
B11: CFP0015 15L 91Q (antibody, V domains shown)
VH: B1 VH
VL: B1 VL with S31D, Y91Q
B12: CFP0015 15L 50Q (antibody, V domains shown)
VH: B1 VH
VL: B1 VL with S31D, E50Q
B13: CFP0015 15L 50D (antibody, V domains shown)
VH: B1 VH
VL: B1 VL with S31D, E50D
B14: CFP0015 15L 31T (antibody, V domains shown)
VH: B1 VH
VL: B1 VL with S31T
B15: CFP0015 15L 53T (antibody, V domains shown)
VH: B1 VH
VL: B1 VL with S31D, N53T
B16: CFP0015 15L 91S (antibody, V domains shown)
VH: B1 VH
VL: B1 VL with S31D, Y91S
B17: CFP0015 15L 91T (antibody, V domains shown)
VH: B1 VH
VL: B1 VL with S31D, Y91T
B18: CFP0015 15L 50A (antibody, V domains shown)
VH: B1 VH
VL: B1 VL with S31D, E50A
B19: CFP0015 15L 32N (antibody, V domains shown)
VH: B1 VH
VL: B1 VL with S31D, D32N
B20: CFP0015 15L 92E (antibody, V domains shown)
VH: B1 VH
VL: B1 VL with S31D, D92E
B21: CFP0015 15L 50H (antibody, V domains shown)
VH: B1 VH
VL: B1 VL with S31D, E50H
B22: CFP0015 15L 91R (antibody, V domains shown)
VH: B1 VH
VL: B1 VL with S31D, Y91R
B23: CFP0015 15L 91E (antibody, V domains shown)
VH: B1 VH
VL: B1 VL with S31D, Y91E
B24: CFP0015 15L 32E (antibody, V domains shown)
VH: B1 VH
VL: B1 VL with S31D, D32E
B25: CFP0015 15L 32H (antibody, V domains shown)
VH: B1 VH
VL: B1 VL with S31D, D32H
B26: CFP0015 15L 32Y (antibody, V domains shown)
VH: B1 VH
VL: B1 VL with S31D, D32Y
B27: CFP0015 15L 92Q (antibody, V domains shown)
VH: B1 VH
VL: B1 VL with S31D, D92Q
B28: CFP0015 15L 50T (antibody, V domains shown)
VH: B1 VH
VL: B1 VL with S31D, E50T
B29: CFP0015 15L 32S (antibody, V domains shown)
VH: B1 VH
VL: B1 VL with S31D, D32S
B30: CFP0015 15L 91H (antibody, V domains shown)
VH: B1 VH
VL: B1 VL with S31D, Y91H
B31: CFP0015 15L 92P (antibody, V domains shown)
VH: B1 VH
VL: B1 VL with S31D, D92P

In this experiment the target is T1, human C5 (human, UniProt P01031 19-673; P01031 678-1676, Beta and alpha chains are disulfide-linked and the protein is glycosylated.).
T1 construct: Either in-house recombinant C5 or plasma derived C5 (CALBIOCHEM) was used; also called recombinant human C5; plasma derived human C5
Briefly: Biacore, captured antibody, pH 7.4, 37 C.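 Note: biacore binding response of anti-C5 antibody light chain variants captured on chip with human C5 injected, ACES running buffer containing 1.2 mM CaCl₂, parent light chain antibody set to 100.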 On the technique in general: In SPR one partner is held on a chip, and binding of the other changes the refractive index at the surface.
Regarding B1, the “% binding (parent = 100)” value stood at 36.5%.

For the molecule B2, the “% binding (parent = 100)” value is 102%.

For the molecule B3, the “% binding (parent = 100)” value came out at 20.4%.

With B4, the “% binding (parent = 100)” value worked out at 73.6%.

Take B5: the “% binding (parent = 100)” value was found to be 80.8%.

Turning to B6, the “% binding (parent = 100)” value worked out at 100%.

Take B7: the “% binding (parent = 100)” value worked out at 78.1%.

For the molecule B8, the “% binding (parent = 100)” value was 44.2%.

Regarding B9, the “% binding (parent = 100)” value stood at 46.9%.

For the molecule B10, the “% binding (parent = 100)” value came to 328%.

Turning to B11, the “% binding (parent = 100)” value was determined as 96.4%.

For the molecule B12, the “% binding (parent = 100)” value turned out to be 51.8%.

As to B13, the “% binding (parent = 100)” value was found to be 131%.

In the case of B14, the “% binding (parent = 100)” value amounted to 15.8%.

Regarding B15, the “% binding (parent = 100)” value was 75.8%.

For B16, the “% binding (parent = 100)” value was found to be 27.3%.

Turning to B17, the “% binding (parent = 100)” value was 50.7%.

Turning to B18, the “% binding (parent = 100)” value worked out at 44.2%.

Turning to B19, the “% binding (parent = 100)” value was 10.9%.

For B20, the “% binding (parent = 100)” value is 99.8%.

With B21, the “% binding (parent = 100)” value is 8.8%.

For the molecule B22, the “% binding (parent = 100)” value amounted to 2.4%.

As for B23, the “% binding (parent = 100)” value worked out at 30.1%.

With B24, the “% binding (parent = 100)” value is 87.3%.

Consider B25, for which the “% binding (parent = 100)” value was 0.8%.

As for B26, the “% binding (parent = 100)” value was 15.1%.

For the molecule B27, the “% binding (parent = 100)” value was found to be 59.7%.

B28: the “% binding (parent = 100)” value is 26.9%.

For the molecule B29, the “% binding (parent = 100)” value was determined as 167%.

Regarding B30, the “% binding (parent = 100)” value is 81.5%.

In the case of B31, the “% binding (parent = 100)” value worked out at 21.7%.
